Series [1] has as its system CC(C)CCC[C@@H](C)[C@H]1CC[C@H]2[C@@H]3CC=C4C[C@@H](O[C@H]5O[C@H](CO)[C@@H](O)[C@H](O)[C@H]5O)CC[C@]4(C)[C@H]3CC[C@]12C. The experiment in a line: purified protein. The note with it: Ca2+ acyl acceptor; sequential rapid-equilibrium random bi-bi mechanism.
Series [2] concerns CCCCCCCCCCCCCC(=O)OC[C@H](COP(=O)(O)OCCN)OC(=O)CCCCCCCCCCCCC
The experiment in a line: purified protein. As to conditions: Ca2+ acyl donor; phospholipase A1-type, a1-position acyl chain transferred to CG.

“cholesteryl α-D-glucopyranoside 6′-acyltransferase (CGAT) (Helicobacter pylori 26695)”: the values for the Km in series [1] and in series [2] were 26.0 µM and 290 µM, respectively.

Values taken from article PMC7069968, “Cholesteryl α-D-glucoside 6-acyltransferase enhances the adhesion of Helicobacter pylori to gastric epithelium” (Communications Biology, 2020).
